Data as given in PMC11140114.

Molecular target: recombinant human dynamin-related protein 1 (Drp1), isoform 1 (human) (UniProt O00429)
Sequence (O00429 whole entry, canonical isoform): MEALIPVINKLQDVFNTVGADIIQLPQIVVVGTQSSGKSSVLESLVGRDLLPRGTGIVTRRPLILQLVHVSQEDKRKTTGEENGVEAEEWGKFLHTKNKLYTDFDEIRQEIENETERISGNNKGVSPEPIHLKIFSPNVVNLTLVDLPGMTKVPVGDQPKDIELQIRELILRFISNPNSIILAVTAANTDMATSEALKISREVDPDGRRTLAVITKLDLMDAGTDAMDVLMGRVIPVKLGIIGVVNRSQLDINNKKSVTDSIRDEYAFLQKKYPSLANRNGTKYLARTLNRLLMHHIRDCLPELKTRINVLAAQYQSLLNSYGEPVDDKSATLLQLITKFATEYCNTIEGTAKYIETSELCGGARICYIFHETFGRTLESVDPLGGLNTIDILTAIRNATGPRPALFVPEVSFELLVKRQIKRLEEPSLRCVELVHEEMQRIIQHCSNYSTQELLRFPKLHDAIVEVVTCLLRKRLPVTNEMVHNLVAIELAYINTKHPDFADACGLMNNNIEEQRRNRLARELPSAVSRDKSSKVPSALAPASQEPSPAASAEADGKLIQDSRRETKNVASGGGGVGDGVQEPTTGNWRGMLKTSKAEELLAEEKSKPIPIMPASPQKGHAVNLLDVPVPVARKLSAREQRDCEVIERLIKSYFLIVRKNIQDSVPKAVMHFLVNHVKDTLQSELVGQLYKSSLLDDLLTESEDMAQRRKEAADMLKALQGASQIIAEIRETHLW

B1: Drp1-specific nanobody D63 (VHH)
VHH: QVQLVESGGDLVQPGGSLKLSCAVSGVSDSLSSFYLMAWHRQAPGKQREMIADIVSGKATYADSVKGRFTISRDNAENTAYLQMNSLKPEDTAVYYCNVLIQNRSTFQSYWGQGTQVTVSS
GTPase rate of 100 nM Drp1 with 0, 10, 100 or 1,000 nM Nb (continuous regenerative assay, 37°C); factor of increase after addition of a 10-fold molar excess of D63: 1.7 fold
